Assay results: IntAct's records for PubMed 20562859

Assays:
atg5_human ATG5 = atg5_human ATG5 (UniProt Q9H1Y0)
rasf5_human RASSF5 = biological target: T1, rasf5_human RASSF5 (UniProt Q8WWW0)
T1 sequence: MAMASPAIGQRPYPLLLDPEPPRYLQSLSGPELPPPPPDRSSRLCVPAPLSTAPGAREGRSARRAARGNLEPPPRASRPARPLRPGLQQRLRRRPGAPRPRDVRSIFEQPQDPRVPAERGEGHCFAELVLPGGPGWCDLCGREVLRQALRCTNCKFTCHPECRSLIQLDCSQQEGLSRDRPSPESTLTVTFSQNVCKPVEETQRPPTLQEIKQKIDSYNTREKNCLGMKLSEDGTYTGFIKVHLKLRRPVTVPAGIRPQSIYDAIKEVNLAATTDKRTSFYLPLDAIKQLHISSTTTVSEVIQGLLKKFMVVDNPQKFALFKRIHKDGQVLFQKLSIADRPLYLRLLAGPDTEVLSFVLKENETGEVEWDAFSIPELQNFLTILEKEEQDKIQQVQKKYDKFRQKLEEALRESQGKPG

nek9_human NEK9 = biological target: T2, nek9_human NEK9 (UniProt Q8TD19)
T2 sequence: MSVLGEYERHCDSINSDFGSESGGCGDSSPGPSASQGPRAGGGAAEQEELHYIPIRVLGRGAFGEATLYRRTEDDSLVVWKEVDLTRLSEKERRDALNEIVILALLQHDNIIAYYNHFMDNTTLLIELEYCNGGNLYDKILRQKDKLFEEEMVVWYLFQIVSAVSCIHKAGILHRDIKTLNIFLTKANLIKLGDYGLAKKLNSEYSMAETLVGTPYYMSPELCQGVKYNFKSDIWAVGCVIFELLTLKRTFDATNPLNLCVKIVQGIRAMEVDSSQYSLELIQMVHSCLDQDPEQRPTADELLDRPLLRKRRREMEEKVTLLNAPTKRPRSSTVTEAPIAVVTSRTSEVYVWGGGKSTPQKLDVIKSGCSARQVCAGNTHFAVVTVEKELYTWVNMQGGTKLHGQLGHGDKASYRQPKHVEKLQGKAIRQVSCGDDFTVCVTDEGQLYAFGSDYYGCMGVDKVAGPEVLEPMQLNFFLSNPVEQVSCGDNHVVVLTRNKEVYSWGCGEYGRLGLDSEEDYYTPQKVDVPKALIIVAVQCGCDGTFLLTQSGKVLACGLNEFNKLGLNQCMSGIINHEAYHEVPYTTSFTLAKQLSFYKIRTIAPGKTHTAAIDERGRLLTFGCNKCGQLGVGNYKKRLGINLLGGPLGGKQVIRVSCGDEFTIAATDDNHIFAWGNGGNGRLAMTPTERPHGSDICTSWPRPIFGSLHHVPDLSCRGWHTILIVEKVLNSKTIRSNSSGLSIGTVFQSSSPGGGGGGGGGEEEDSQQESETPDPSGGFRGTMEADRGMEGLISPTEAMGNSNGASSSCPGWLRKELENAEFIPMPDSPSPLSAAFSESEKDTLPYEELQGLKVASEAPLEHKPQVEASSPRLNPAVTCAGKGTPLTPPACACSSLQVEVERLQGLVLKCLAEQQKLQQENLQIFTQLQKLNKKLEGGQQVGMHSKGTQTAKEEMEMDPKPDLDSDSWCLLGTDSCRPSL

atg13_human ATG13 = biological target: T3, atg13_human ATG13 (UniProt O75143)
T3 sequence: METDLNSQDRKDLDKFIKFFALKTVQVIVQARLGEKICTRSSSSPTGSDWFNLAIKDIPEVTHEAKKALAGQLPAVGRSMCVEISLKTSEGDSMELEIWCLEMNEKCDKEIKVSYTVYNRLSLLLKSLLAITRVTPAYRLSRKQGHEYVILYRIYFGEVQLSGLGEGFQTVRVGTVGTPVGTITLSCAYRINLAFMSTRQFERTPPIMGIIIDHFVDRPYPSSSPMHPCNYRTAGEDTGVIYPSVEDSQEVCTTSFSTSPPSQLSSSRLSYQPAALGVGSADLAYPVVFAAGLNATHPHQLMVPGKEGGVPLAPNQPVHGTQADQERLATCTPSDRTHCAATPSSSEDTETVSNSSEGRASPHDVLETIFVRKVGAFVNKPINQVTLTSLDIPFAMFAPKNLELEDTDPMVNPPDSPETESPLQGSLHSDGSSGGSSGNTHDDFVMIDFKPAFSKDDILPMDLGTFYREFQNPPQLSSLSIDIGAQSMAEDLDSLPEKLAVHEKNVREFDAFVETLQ

ulk1_human ULK1 = biological target: T4, ulk1_human ULK1 (UniProt O75385)
T4 sequence: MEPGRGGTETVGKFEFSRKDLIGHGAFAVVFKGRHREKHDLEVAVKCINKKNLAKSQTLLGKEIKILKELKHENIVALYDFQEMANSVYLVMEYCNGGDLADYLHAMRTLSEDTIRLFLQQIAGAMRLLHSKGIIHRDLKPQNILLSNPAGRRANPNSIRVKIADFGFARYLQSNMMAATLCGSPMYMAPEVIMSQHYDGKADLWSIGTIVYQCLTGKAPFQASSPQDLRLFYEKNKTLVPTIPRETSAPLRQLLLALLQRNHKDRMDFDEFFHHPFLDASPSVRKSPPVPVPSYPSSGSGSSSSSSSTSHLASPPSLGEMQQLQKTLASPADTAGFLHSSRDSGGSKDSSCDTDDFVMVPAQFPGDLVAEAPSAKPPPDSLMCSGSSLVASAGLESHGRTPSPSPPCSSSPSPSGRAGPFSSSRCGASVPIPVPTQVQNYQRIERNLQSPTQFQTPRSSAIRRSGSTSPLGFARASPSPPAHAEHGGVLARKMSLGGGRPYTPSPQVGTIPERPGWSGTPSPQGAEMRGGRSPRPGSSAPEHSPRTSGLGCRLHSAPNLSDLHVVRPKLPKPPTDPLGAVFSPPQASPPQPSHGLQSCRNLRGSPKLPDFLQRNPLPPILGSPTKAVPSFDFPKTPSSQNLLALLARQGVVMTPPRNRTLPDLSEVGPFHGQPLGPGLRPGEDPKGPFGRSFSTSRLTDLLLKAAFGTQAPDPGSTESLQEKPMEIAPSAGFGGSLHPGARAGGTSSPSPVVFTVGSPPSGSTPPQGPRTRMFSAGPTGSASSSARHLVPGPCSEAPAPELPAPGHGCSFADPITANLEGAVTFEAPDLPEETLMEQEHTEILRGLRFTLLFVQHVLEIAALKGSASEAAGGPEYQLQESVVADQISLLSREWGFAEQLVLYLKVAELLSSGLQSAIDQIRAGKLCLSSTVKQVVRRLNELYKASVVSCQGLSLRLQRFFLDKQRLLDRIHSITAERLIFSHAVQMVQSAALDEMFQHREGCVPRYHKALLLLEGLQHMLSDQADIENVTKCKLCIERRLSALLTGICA

Chain of atg5_human ATG5 (Q9H1Y0 whole entry): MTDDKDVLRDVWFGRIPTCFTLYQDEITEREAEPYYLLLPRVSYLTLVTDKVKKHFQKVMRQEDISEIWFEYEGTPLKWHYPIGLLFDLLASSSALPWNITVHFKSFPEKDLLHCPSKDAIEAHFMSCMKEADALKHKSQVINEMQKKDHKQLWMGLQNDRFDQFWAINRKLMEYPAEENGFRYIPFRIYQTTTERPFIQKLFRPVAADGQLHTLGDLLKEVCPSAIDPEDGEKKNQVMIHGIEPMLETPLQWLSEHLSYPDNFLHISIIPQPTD

Row | effect of a mutation on the interaction (atg5_human ATG5) | effect of a mutation on the interaction (rasf5_human RASSF5) | effect of a mutation on the interaction (atg13_human ATG13) | effect of a mutation on the interaction (ulk1_human ULK1) | Substance | effect of a mutation on the interaction (nek9_human NEK9)
1 | increasing interaction | increasing interaction |  |  | Microtubule-associated protein 1 light chain 3 beta (Homo sapiens) (from UniProt Q9GZQ8) F52A;L53A | decreasing interaction
2 |  |  | decreasing interaction | decreasing interaction | Microtubule-associated protein 1 light chain 3 beta (Homo sapiens) (from UniProt Q9GZQ8) R69A | 
